# Entries after “also recorded” stand apart in the source; their conditions may differ. Ends that are not written are not given here.
# T1: GST-NHERF3 (human, UniProt Q5T2W1 1-519)
# T1 construct: also called PDZK1; CAP70
# T1 sequence (looked up): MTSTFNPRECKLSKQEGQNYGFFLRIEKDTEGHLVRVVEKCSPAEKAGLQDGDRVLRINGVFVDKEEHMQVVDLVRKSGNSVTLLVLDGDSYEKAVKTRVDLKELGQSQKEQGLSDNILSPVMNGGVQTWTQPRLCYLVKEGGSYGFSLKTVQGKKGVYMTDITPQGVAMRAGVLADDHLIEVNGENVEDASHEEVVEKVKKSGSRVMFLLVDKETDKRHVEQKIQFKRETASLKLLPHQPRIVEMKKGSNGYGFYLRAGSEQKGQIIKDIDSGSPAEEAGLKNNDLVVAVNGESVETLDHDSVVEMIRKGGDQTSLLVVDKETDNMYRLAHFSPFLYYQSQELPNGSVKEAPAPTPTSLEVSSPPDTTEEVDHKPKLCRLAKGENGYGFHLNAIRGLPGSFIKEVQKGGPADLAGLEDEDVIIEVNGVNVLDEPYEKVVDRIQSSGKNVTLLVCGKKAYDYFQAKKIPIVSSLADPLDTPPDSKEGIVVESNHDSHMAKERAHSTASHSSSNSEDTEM
# T2: GST-NHERF1 (human, UniProt O14745 1-358)
# T2 construct: also called EBP50; GST-tagged NHERF1
# T2 sequence (looked up): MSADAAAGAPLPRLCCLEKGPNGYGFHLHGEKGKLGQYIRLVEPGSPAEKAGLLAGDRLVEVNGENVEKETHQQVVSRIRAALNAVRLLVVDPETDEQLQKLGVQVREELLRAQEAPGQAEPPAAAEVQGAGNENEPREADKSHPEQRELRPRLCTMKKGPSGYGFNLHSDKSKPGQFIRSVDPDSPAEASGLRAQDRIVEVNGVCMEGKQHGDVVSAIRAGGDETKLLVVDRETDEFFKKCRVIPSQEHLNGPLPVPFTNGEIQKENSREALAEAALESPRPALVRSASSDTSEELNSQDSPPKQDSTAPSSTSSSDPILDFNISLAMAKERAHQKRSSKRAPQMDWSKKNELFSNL
# Key:
# [1] = target: Cyan- and yellow-tagged GCC catalytic domains (human); experiment: FRET or BRET; sensitized FRET in HEK 293 cells between Cyan-GCCcat and Yellow-GCCcat, co-expressed with pCDNA3 empty vector, HA-NHERF3, HA-NHERF4, HA-NHERF4 PDZ1 or HA-NHERF4 delPDZ1; STc (1 uM) stimulation
# [2] = tested on: CFTR-dependent fluid secretion, organoids; conditions: cited from earlier work
# [3] = tested on: GCC; format: biochemical, human
# [4] = tested on: FLAG-GCC in HEK-293 cells; format: cell-based
# [5] = tested on: MRP4C50 and GCCC50; format: binding; conditions: 4 °C
# [6] = tested on: GCC catalytic domains (Cyan-GCCcat and Yellow-GCCcat); format: cell-based
# [7] = tested on: C-terminal 50 amino acids of MRP4 (MRP4C50); format: binding
# [8] = tested on: C-terminal 50 amino acids of GCC (GCCC50); format: binding
# [9] = tested on: CFTR-dependent fluid secretion, mouse enteroids; format: cell-based
# [10] = target: HA-GCC (human, UniProt P25092 24-1073); experiment: cell-based or functional assay
# [11] = target: T1, GST-NHERF3; experiment: far-Western, overlay or dot blot; dot blot: GST-NHERF1-4 and GST on nitrocellulose, GCCC50 overlaid, probed with in-house anti-GCC rabbit polyclonal antibody; saturating NHERF, > 1.2 pmoles; conditions: both partners purified
# [12] = target: T2, GST-NHERF1; experiment: as above; conditions: both partners purified
# [13] = target: T3, GST-NHERF2 (human, UniProt Q15599 1-337); experiment: as above; conditions: both partners purified
# T3 construct: also called E3KARP; GST-tagged NHERF2
# [14] = target: T1, GST-NHERF3; experiment: far-Western, overlay or dot blot; slot blot (macromolecular complex assay): GST-His-S-MRP4-C50 (0, 5 and 20 ug) and GST alone on nitrocellulose, 5 ug GST-NHERF3 overnight at 4 C, then 0.5 ug purified Flag-GCC-C50 at 4 C; detected with a GCC C-terminal specific antibody; conditions: both partners purified
# [15] = target: T4, GCC catalytic domain (GCCcat, amino acids 824-954), purified (human, UniProt P25092 824-954); experiment: HRP-based binding assay on S-beads; 20 ug purified GCCcat immobilised on S-beads, 7.5 uM Biotin N4-195 overnight at 4 C, washed with PBS 0.2% Triton-X-100, streptavidin HRP with TMB, absorbance at 450 nm; control: S-beads without GCCcat; conditions: both partners purified
# T4 construct: also called GCC catalytic subunit
# T4 sequence (P25092 824-954): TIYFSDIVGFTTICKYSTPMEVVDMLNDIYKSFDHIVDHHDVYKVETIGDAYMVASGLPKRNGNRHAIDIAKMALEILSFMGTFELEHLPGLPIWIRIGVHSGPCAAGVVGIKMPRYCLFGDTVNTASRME
# Sequence of Cyan- and yellow-tagged GCC catalytic domains (domain or fragment) (P25092 24-1073): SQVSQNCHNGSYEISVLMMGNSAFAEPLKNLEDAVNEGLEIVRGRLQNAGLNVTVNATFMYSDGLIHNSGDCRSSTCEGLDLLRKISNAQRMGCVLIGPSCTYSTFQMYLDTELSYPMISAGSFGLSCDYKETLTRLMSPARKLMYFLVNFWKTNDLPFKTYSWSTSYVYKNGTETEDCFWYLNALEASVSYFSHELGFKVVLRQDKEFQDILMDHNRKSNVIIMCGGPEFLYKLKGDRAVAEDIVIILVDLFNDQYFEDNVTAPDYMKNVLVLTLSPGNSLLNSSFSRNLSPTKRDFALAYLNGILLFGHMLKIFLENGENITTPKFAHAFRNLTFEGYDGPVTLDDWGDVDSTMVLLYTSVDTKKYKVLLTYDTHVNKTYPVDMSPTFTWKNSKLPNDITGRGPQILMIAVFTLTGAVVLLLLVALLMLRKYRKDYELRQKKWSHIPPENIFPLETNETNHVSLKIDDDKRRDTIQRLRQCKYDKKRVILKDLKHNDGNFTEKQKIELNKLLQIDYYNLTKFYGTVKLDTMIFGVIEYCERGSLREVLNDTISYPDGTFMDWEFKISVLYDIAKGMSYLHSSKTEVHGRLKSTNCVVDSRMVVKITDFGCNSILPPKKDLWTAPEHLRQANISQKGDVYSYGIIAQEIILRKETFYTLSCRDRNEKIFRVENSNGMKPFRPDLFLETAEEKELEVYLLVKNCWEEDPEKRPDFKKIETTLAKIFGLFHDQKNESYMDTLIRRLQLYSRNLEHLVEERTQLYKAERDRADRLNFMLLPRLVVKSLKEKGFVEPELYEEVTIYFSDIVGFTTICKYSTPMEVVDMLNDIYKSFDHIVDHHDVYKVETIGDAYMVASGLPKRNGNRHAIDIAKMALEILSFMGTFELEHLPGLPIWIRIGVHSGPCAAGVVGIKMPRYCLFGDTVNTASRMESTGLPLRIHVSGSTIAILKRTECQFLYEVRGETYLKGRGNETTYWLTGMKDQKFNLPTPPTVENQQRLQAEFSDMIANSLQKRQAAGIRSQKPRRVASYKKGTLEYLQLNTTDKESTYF
molecule,measurement,setting,value
Cyan- and yellow-tagged GCC catalytic domains (domain or fragment),"FRET efficiency of GCCcat oligomerization (control, empty vector)",[1],0.54
HA-NHERF4 PDZ1 (domain or fragment),FRET efficiency of GCCcat oligomerization with this protein co-expressed,[1],0.21
C=C[C@@]1(C)CC(=O)[C@]2(O)[C@@]3(C)[C@@H](O)CCC(C)(C)[C@@H]3[C@H](O)[C@H](OC(C)=O)[C@@]2(C)O1 [Forskolin],Fluid secretion response (organoid swelling),[2],highly robust fluid secretion response
H-RHAHDVARAQL-OH [N4-195],GCC activity (cGMP) in the presence of single peptide,[3],did not affect GCC activity
NHERF3: PDZ adaptor protein; GST-fusion protein or HA-tagged construct,Binding to GCC with increasing concentrations of STc,[4],not affected
same,Macromolecular complex formation of GCC and MRP4 via NHERF3,[5],GCC could exist in a macromolecular complex with MRP4 via NHERF3
same,FRET efficiency of GCCcat oligomerization,[6],0.51 ± 0.08
same,Binding order of NHERFs to MRP4,[7],NHERF3> NHERF2≥ NHERF1> NHERF4
same,Binding order of NHERFs to GCC,[8],highest binding affinity for GCC among the NHERF proteins; also recorded: NHERF3> NHERF1> NHERF2> NHERF4
"H-PRCDRVLHHFLRAALLQEAR-OH [N4-scrambled, scrambled peptide with same amino acid composition as N4-110 and N4-195 combined]","STc-stimulated secretion with scrambled peptide, high concentrations",[9],some non-specific inhibition was observed at high concentrations
same,"STc-stimulated secretion with scrambled peptide, lower concentrations",[9],did not reduce STc-stimulated secretion at lower concentrations
"H-LERPRFCLL-OH [N4-110, peptide in NHERF4 PDZ1 domain homologous to GCC catalytic domain]",GCC activity (cGMP) in the presence of single peptide,[3],did not affect GCC activity
"NHERF2: PDZ adaptor protein; purified as GST-fusion protein (protein, left off: GST, end not stated, kept) MAAPEPLRPRLCRLVRGEQGYGFHLHGEKGRRGQFIRRVEPGSPAEAAALRAGDRLVEVNGVNVEGETHHQVVQRIKAVEGQTRLLVVDQETDEELRRRQLTCTEEMAQRGLPPAHDPWEPKPDWAHTGSHSSEAGKKDVSGPLRELRPRLCHLRKGPQGYGFNLHSDKSRPGQYIRSVDPGSPAARSGLRAQDRLIEVNGQNVEGLRHAEVVASIKAREDEARLLVVDPETDEHFKRLRVTPTEEHVEGPLPSPVTNGTSPAQLNGGSACSSRSDLPGSDKDTEDGSAWKQDPFQESGLHLSPTAAEAKEKARAMRVNKRAPQMDWNRKREIFSNF",Binding order of NHERFs to MRP4,[7],NHERF3> NHERF2≥ NHERF1> NHERF4
same,Binding order of NHERFs to GCC,[8],NHERF3> NHERF1> NHERF2> NHERF4
"GST-NHERF4 (natural protein, human, UniProt Q86UT5 1-571, looked up) MVTPSPPGNHSLSLEAPRLHTASDLLGNHSLGLPLITALVGSRDRRGRVFSPVPVPLPTNPTTQHPTRQKLPSTLSGHRVCQAHGEPVLGLCPLLPLFCCPPHPPDPWSLERPRFCLLSKEEGKSFGFHLQQELGRAGHVVCRVDPGTSAQRQGLQEGDRILAVNNDVVEHEDYAVVVRRIRASSPRVLLTVLARHAHDVARAQLGEDAHLCPTLGPGVRPRLCHIVKDEGGFGFSVTHGNQGPFWLVLSTGGAAERAGVPPGARLLEVNGVSVEKFTHNQLTRKLWQSGQQVTLLVAGPEVEEQCRQLGLPLAAPLAEGWALPTKPRCLHLEKGPQGFGFLLREEKGLDGRPGQFLWEVDPGLPAKKAGMQAGDRLVAVAGESVEGLGHEETVSRIQGQGSCVSLTVVDPEADRFFSMVRLSPLLFLENTEAPASPRGSSSASLVETEDPSLEDTSVPSVPLGSRQCFLYPGPGGSYGFRLSCVASGPRLFISQVTPGGSAARAGLQVGDVILEVNGYPVGGQNDLERLQQLPEAEPPLCLKLAARSLRGLEAWIPPGAAEDWALASDLL",FRET efficiency of GCCcat oligomerization with this protein co-expressed,[1],0.17
same,"inhibition of the cGMP formation of HA-GCC immunoprecipitated on HA beads by 200 nM purified GST-NHERF4, relative to the GST-only control",[10],38%
"NHERF1: PDZ adaptor protein; purified as GST-fusion protein (protein, left off: GST, end not stated, kept) MSADAAAGAPLPRLCCLEKGPNGYGFHLHGEKGKLGQYIRLVEPGSPAEKAGLLAGDRLVEVNGENVEKETHQQVVSRIRAALNAVRLLVVDPETDEQLQKLGVQVREELLRAQEAPGQAEPPAAAEVQGAGNENEPREADKSHPEQRELRPRLCTMKKGPSGYGFNLHSDKSKPGQFIRSVDPDSPAEASGLRAQDRIVEVNGVCMEGKQHGDVVSAIRAGGDETKLLVVDRETDEFFKKCRVIPSQEHLNGPLPVPFTNGEIQKENSREALAEAALESPRPALVRSASSDTSEELNSQDSPPKQDSTAPSSTSSSDPILDFNISLAMAKERAHQKRSSKRAPQMDWSKKNELFSNL",Binding order of NHERFs to MRP4,[7],NHERF3> NHERF2≥ NHERF1> NHERF4
same,Binding order of NHERFs to GCC,[8],NHERF3> NHERF1> NHERF2> NHERF4
"AEFSDMIANSLQKRQAAGIRSQKPRRVASYKKGTLEYLQLNTTDKESTYF (domain or fragment, human, UniProt P25092 1024-1073, looked up) [C-terminal 50 amino acids of GCC (GCCC50)]",binding result,[11],binds
same,binding result,[12],binds
same,binding result,[13],binds
"AEFSDMIANSLQKRQAAGIRSQKPRRVASYKKGTLEYLQLNTTDKESTYF (domain or fragment, human, UniProt P25092 1024-1073, looked up, also called GCCC50) [Flag-GCC-C-terminal 50 aa]",binding result,[14],binds
"RHAHDVARAQL (not fully specified (N-terminus); also: biotin label, position not given here, also called N4-Biotin) [Biotin-N4-195 peptide]",binding result,[15],binds

# Reference: PMC12510010 (The Journal of Biological Chemistry, 2025)
